Sequences and labels used below:
B1: NLV3 TCR beta chain (CDR3β only) (parent)
chain: ASSPTGGSPSPLH

In the test the parent is B1. The test can be described thus: T-Switch: Jurkat TCRβ−/− cells expressing a CDR3 saturation-mutagenesis library, stained with two peptide-HLA-A*02:01 tetramers (original and novel peptide) plus anti-CD3, FACS-sorted into four gates, gDNA sequenced. Conditions: tetramers 1 µg/mL, 30 min on ice, SP, DP and SW gates expanded about 10 days between rounds ('two to three rounds of selection' in the Methods), unresolved parent, parent is a CDR3 fragment, scale: fold enrichment, numbering: sequential-on-construct, sequence starts at 1.

Where [1] appears, read: with both tetramers (double-negative gate, binds neither): HLA-A*02:01 with … and with …, gate DN: OPPOSITE: higher = more of the variant in the gate that binds neither peptide = LESS binding (or no expression; inferred). Fold enrichment of the CDR3 variant in one FACS gate of a two-tetram.
Setting [2] is: with both tetramers (double-positive gate): HLA-A*02:01 with … and with …, gate DP: higher = more of the variant in the gate that binds both peptides. Fold enrichment of the CDR3 variant in one FACS gate of a two-tetramer stain. SP/DP/SW gates were expanded and re-sorted bef.

On to […] (CDR3 as printed); S8W derived by comparing it with the table's wild-type CDR3 ASSPTGGSPSPLH, for which the enrichment under setting [1] came out at 0.85 and the enrichment under setting [2] came to 0.
Consider […] (CDR3 as printed); H13E derived by comparing it with the table's wild-type CDR3 ASSPTGGSPSPLH, for which the enrichment by setting is: under setting [1], 0.868; under setting [2], 0.
For […] (CDR3 as printed); G7V derived by comparing it with the table's wild-type CDR3 ASSPTGGSPSPLH the same measures were 1.02 and 0.
For […] (CDR3 as printed); S10W derived by comparing it with the table's wild-type CDR3 ASSPTGGSPSPLH the same measures were 1.12 and 0.
Consider […] (CDR3 as printed); A1S derived by comparing it with the table's wild-type CDR3 ASSPTGGSPSPLH, for which the enrichment under setting [1] worked out at 1.25 and the enrichment under setting [2] turned out to be 0.
For […] (CDR3 as printed); P11Q derived by comparing it with the table's wild-type CDR3 ASSPTGGSPSPLH, the enrichment reads like this: under setting [1], 0.777; under setting [2], 0.
For […] (CDR3 as printed); L12V derived by comparing it with the table's wild-type CDR3 ASSPTGGSPSPLH the same measures were 0.702 and 0.
For […] (CDR3 as printed); H13M derived by comparing it with the table's wild-type CDR3 ASSPTGGSPSPLH the same measures were 0.598 and 0.
For […] (CDR3 as printed); T5L derived by comparing it with the table's wild-type CDR3 ASSPTGGSPSPLH the same measures were 0.514 and 0.
[…] (CDR3 as printed); S8R derived by comparing it with the table's wild-type CDR3 ASSPTGGSPSPLH: the enrichment was 0.977 under setting [1] and 0 under setting [2].
Taken in the same sequence, the figures for […] (CDR3 as printed); P11K derived by comparing it with the table's wild-type CDR3 ASSPTGGSPSPLH were 0.634 and 0.
Taken in the same sequence, the figures for […] (CDR3 as printed); G6I derived by comparing it with the table's wild-type CDR3 ASSPTGGSPSPLH were 1.08 and 0.
For […] (CDR3 as printed); A1Y derived by comparing it with the table's wild-type CDR3 ASSPTGGSPSPLH the same measures were 1.15 and 0.
In the case of […] (CDR3 as printed); P9E derived by comparing it with the table's wild-type CDR3 ASSPTGGSPSPLH, the enrichment is 0.929 under setting [1] and 0 under setting [2].
As for […] (CDR3 as printed); S2K derived by comparing it with the table's wild-type CDR3 ASSPTGGSPSPLH, the enrichment was found to be 0.571 under setting [1] and 0 under setting [2].
Consider […] (CDR3 as printed); G7T derived by comparing it with the table's wild-type CDR3 ASSPTGGSPSPLH, for which the enrichment is, setting by setting: under setting [1], 0.754; under setting [2], 0.
As to […] (CDR3 as printed); S3M derived by comparing it with the table's wild-type CDR3 ASSPTGGSPSPLH, the enrichment was determined as 0.806 under setting [1] and 0 under setting [2].
Take […] (CDR3 as printed); S10G derived by comparing it with the table's wild-type CDR3 ASSPTGGSPSPLH: the enrichment under setting [1] was determined as 0.33 and the enrichment under setting [2] is 0.
Taken in the same sequence, the figures for […] (CDR3 as printed); T5D derived by comparing it with the table's wild-type CDR3 ASSPTGGSPSPLH were 1.06 and 0.
Taken in the same sequence, the figures for […] (CDR3 as printed); S3C derived by comparing it with the table's wild-type CDR3 ASSPTGGSPSPLH were 0.656 and 0.
For […] (CDR3 as printed); P4C derived by comparing it with the table's wild-type CDR3 ASSPTGGSPSPLH the same measures were 0.776 and 0.
Regarding […] (CDR3 as printed); S3I derived by comparing it with the table's wild-type CDR3 ASSPTGGSPSPLH, the enrichment under setting [1] was determined as 1.21 and the enrichment under setting [2] turned out to be 0.
For […] (CDR3 as printed); P11L derived by comparing it with the table's wild-type CDR3 ASSPTGGSPSPLH the same measures were 0.702 and 0.
For the variant […] (CDR3 as printed); P9A derived by comparing it with the table's wild-type CDR3 ASSPTGGSPSPLH, the enrichment under setting [1] stood at 0.394 and the enrichment under setting [2] worked out at 114.
As to […] (CDR3 as printed); L12I derived by comparing it with the table's wild-type CDR3 ASSPTGGSPSPLH, the enrichment under setting [1] came out at 0.883 and the enrichment under setting [2] was 0.
For the variant […] (CDR3 as printed); S8L derived by comparing it with the table's wild-type CDR3 ASSPTGGSPSPLH, the enrichment came to 1.58 under setting [1] and 0 under setting [2].
For […] (CDR3 as printed); H13K derived by comparing it with the table's wild-type CDR3 ASSPTGGSPSPLH the same measures were 0.708 and 0.
Taken in the same sequence, the figures for […] (CDR3 as printed); P9G derived by comparing it with the table's wild-type CDR3 ASSPTGGSPSPLH were 1.21 and 0.
In the case of […] (CDR3 as printed); P11S derived by comparing it with the table's wild-type CDR3 ASSPTGGSPSPLH, the enrichment turned out to be 1.52 under setting [1] and 0 under setting [2].
For […] (CDR3 as printed); A1H derived by comparing it with the table's wild-type CDR3 ASSPTGGSPSPLH, the enrichment was 0.916 under setting [1] and 0 under setting [2].
Turning to […] (CDR3 as printed); S2H derived by comparing it with the table's wild-type CDR3 ASSPTGGSPSPLH, the enrichment worked out at 0.777 under setting [1] and 0 under setting [2].
For […] (CDR3 as printed); L12G derived by comparing it with the table's wild-type CDR3 ASSPTGGSPSPLH the same measures were 0.618 and 0.
Taken in the same sequence, the figures for […] (CDR3 as printed); S2C derived by comparing it with the table's wild-type CDR3 ASSPTGGSPSPLH were 0.867 and 0.
As for […] (CDR3 as printed); P9V derived by comparing it with the table's wild-type CDR3 ASSPTGGSPSPLH, the enrichment is, setting by setting: under setting [1], 0.664; under setting [2], 0.
In the case of […] (CDR3 as printed); S8C derived by comparing it with the table's wild-type CDR3 ASSPTGGSPSPLH, the enrichment worked out at 0.677 under setting [1] and 0 under setting [2].
For […] (CDR3 as printed); H13G derived by comparing it with the table's wild-type CDR3 ASSPTGGSPSPLH the same measures were 0.702 and 0.
Taken in the same sequence, the figures for […] (CDR3 as printed); G6D derived by comparing it with the table's wild-type CDR3 ASSPTGGSPSPLH were 0.99 and 0.
For the variant […] (CDR3 as printed); S3N derived by comparing it with the table's wild-type CDR3 ASSPTGGSPSPLH, the enrichment runs as follows: under setting [1], 0.483; under setting [2], 0.
Take […] (CDR3 as printed); H13F derived by comparing it with the table's wild-type CDR3 ASSPTGGSPSPLH: the enrichment was 0.541 under setting [1] and 0 under setting [2].
On to […] (CDR3 as printed); A1W derived by comparing it with the table's wild-type CDR3 ASSPTGGSPSPLH, for which the enrichment was determined as 0.805 under setting [1] and 0 under setting [2].
As for […] (CDR3 as printed); S10P derived by comparing it with the table's wild-type CDR3 ASSPTGGSPSPLH, the enrichment under setting [1] was found to be 1.37 and the enrichment under setting [2] stood at 0.
Taken in the same sequence, the figures for […] (CDR3 as printed); S3Y derived by comparing it with the table's wild-type CDR3 ASSPTGGSPSPLH were 0.895 and 0.
For […] (CDR3 as printed); P9N derived by comparing it with the table's wild-type CDR3 ASSPTGGSPSPLH the same measures were 1.65 and 0.
Taken in the same sequence, the figures for […] (CDR3 as printed); P4E derived by comparing it with the table's wild-type CDR3 ASSPTGGSPSPLH were 0.97 and 0.
Regarding […] (CDR3 as printed); T5E derived by comparing it with the table's wild-type CDR3 ASSPTGGSPSPLH, the enrichment is, setting by setting: under setting [1], 0.994; under setting [2], 0.
For […] (CDR3 as printed); S2I derived by comparing it with the table's wild-type CDR3 ASSPTGGSPSPLH the same measures were 0.694 and 0.
Taken in the same sequence, the figures for […] (CDR3 as printed); G7I derived by comparing it with the table's wild-type CDR3 ASSPTGGSPSPLH were 1.05 and 0.
Taken in the same sequence, the figures for […] (CDR3 as printed); L12Y derived by comparing it with the table's wild-type CDR3 ASSPTGGSPSPLH were 1.11 and 0.
Turning to […] (CDR3 as printed); G7C derived by comparing it with the table's wild-type CDR3 ASSPTGGSPSPLH, the enrichment by setting is: under setting [1], 0.947; under setting [2], 0.
Taken in the same sequence, the figures for […] (CDR3 as printed); G7F derived by comparing it with the table's wild-type CDR3 ASSPTGGSPSPLH were 1.02 and 0.
With […] (CDR3 as printed); L12F derived by comparing it with the table's wild-type CDR3 ASSPTGGSPSPLH, the enrichment came out at 1.49 under setting [1] and 0 under setting [2].
For the variant […] (CDR3 as printed); H13P derived by comparing it with the table's wild-type CDR3 ASSPTGGSPSPLH, the enrichment runs as follows: under setting [1], 1; under setting [2], 0.
Taken in the same sequence, the figures for […] (CDR3 as printed); P9W derived by comparing it with the table's wild-type CDR3 ASSPTGGSPSPLH were 1.05 and 0.
As to […] (CDR3 as printed); S8Q derived by comparing it with the table's wild-type CDR3 ASSPTGGSPSPLH, the enrichment stood at 0.893 under setting [1] and 0 under setting [2].
For […] (CDR3 as printed); G7Q derived by comparing it with the table's wild-type CDR3 ASSPTGGSPSPLH the same measures were 1.09 and 0.
For […] (CDR3 as printed); P11R derived by comparing it with the table's wild-type CDR3 ASSPTGGSPSPLH the same measures were 0.579 and 0.
For […] (CDR3 as printed); P11D derived by comparing it with the table's wild-type CDR3 ASSPTGGSPSPLH the same measures were 0.46 and 0.
As for […] (CDR3 as printed); S3W derived by comparing it with the table's wild-type CDR3 ASSPTGGSPSPLH, the enrichment came out at 0.749 under setting [1] and 0 under setting [2].

(Values after article PMC13397619.)
